Patent US20220193132A1 (NATIONAL RESEARCH COUNCIL OF CANADA, published 2022)

Legend:
[1] = target: T1, EGFRvIII, full length, overexpressed on glioblastoma cells (human, UniProt P00533 298-623); assay: flow cytometry dose-response on DKMG EGFRvIII cells, apparent Kd (n=1)
T1 construct: Cells overexpress full length EGFRvIII (deletion of exons 2-7 of EGFR); Cell line (U87MG or DKMG) is named under assay; also called U87MG-EGFRvIII; U87vIII
Procedure: (§1) Prior to analysis, cells were plated such that they were not more than 80% confluent on the day of analysis. Unless otherwise stated, all media are kept are 4° C. and all incubations are performed on wet ice. Cells were washed in PBS, harvested by the addition of cell dissociation buffer (Sigma), centrifuged and resuspended in complete medium at a cell density of 2×10⁶ cells/mL. Fifty μL/well of cells were distributed in a polypropylene v-bottom 96 well plate and serial 1/3 dilutions of purified mAbs starting at 100 nM were added and incubated for 2 hours. […] Cells were washed and re-suspended in medium containing Propidium iodide to exclude dead cells from analysis. Samples were filtered through a 60 μm nylon mesh filter plate (Millipore, Ireland) to remove cell aggregates. Flow cytometry analyses were performed on 2,000 viable single-cells events gated on forward scattering, side scattering parameters and propidium iodide dye exclusion using a BD-LSRFortessa flow cytometer (Becton-Dickinson Biosciences, CA, USA) and a standard filter set using BD FACSDiva™ acquisition software, according to manufacturer's instructions.
(§2) These cells were grown in RPMI and 10% fetal bovine serum using standard culturing conditions.

[2] = target: T1, EGFRvIII, full length, overexpressed on …; assay: flow cytometry dose-response on DKMG EGFRvIII cells (n=1)
Procedure: as §1, §2

[3] = target: T2, wild type human EGFR, full length, overexpressed on U87MG cells (human, UniProt P00533 25-1210); assay: flow cytometry dose-response, U87MG EGFR wt cells
T2 construct: also called U87MG-EGFR wt; U87 WT
Procedure: as §1
(§3) Specific detection of antibody binding was calculated as the mean fluorescent intensity of binding to each primary antibody after background level subtraction of the mean fluorescent intensity of binding of mouse IgG control. The data were analyzed with GraphPad Prism v 6.0 software using one-site specific binding with Hill slope non-linear regression curve fit model to determine Bmax (maximum specific binding) and Kdₐₚₚ (concentration needed to achieve a half-maximum binding at equilibrium) for each mAb tested.

[4] = target: T1, EGFRvIII, full length, overexpressed on …; assay: flow cytometry dose-response on U87MG EGFRvIII cells, apparent Kd (n=3)
Procedure: Prior to analysis, cells were plated such that they were not more than 80% confluent on the day of analysis. Unless otherwise stated, all media are kept are 4° C. and all incubations are performed on wet ice. Cells were washed in PBS, harvested by the addition of cell dissociation buffer (Sigma), centrifuged and resuspended in complete medium at a cell density of 2×10⁶ cells/mL. Fifty μL/well of cells were distributed in a polypropylene v-bottom 96 well plate and serial 1/3 dilutions of purified mAbs starting at 100 nM were added and incubated for 2 hours. […] Cells were washed and re-suspended in medium containing Propidium iodide to exclude dead cells from analysis. Samples were filtered through a 60 μm nylon mesh filter plate (Millipore, Ireland) to remove cell aggregates. […]
as §3

[5] = target: T3, EGFRvIII amino acid residues 15 to 37 with Cys35 to Ala mutation (human); assay: yeast display flow cytometry, alanine scan
T3 construct: mutation is already in the entry
T3 peptide: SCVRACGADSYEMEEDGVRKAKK
Source text: (§4) Assessment of the binding of anti-EGFRvIII mAbs to the fusion proteins expressed on yeast cell surface was done by flow cytometry analysis. Briefly, yeast cells were labeled with both the anti-hEGFRvIII mAb and chicken anti-Myc antibody, the latter being used to monitor the level of expression of the fusion protein. Following a wash step, binding of the primary antibodies is probed by a two-color indirect fluorescence labeling using secondary antibodies specific for mouse and chicken antibodies, respectively.
(§5) To further characterize mAb epitopes within the EGFRvIII 15-37 region, an alanine scan of this region was performed, and modified fragments were expressed at the surface of the yeast. […] The resulting peptides were expressed at the surface of the yeast and each anti-EGFRvIII mAbs was tested on the corresponding yeast mutant strain by flow cytometry analysis. Thus, this assay determined the contribution of each amino acid(s) in the monoclonal antibody binding.

[6] = target: T4, EGFRvIII amino acid residues 15 to 37 with Lys34 to Ala mutation (human); assay: yeast display flow cytometry, alanine scan
T4 construct: mutation is already in the entry
T4 peptide: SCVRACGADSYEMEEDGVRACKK
Source text: as §4, §5

[7] = target: T5, EGFRvIII amino acid residues 15 to 37 with Glu26 to Ala mutation (human); assay: yeast display flow cytometry, alanine scan
T5 construct: mutation is already in the entry
T5 peptide: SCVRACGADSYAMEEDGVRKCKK
Source text: as §4, §5

[8] = target: T6, EGFRvIII amino acid residues 15 to 37 with Val32 to Ala mutation (human); assay: yeast display flow cytometry, alanine scan
T6 construct: mutation is already in the entry
T6 peptide: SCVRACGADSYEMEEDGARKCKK
Source text: as §4, §5

[9] = target: T7, EGFRvIII amino acid residues 15 to 37 with Arg33 to Ala mutation (human); assay: yeast display flow cytometry, alanine scan
T7 construct: mutation is already in the entry
T7 peptide: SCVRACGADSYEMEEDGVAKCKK
Source text: as §4, §5

[10] = target: T8, EGFRvIII amino acid residues 15 to 37 with Lys36 to Ala mutation (human); assay: yeast display flow cytometry, alanine scan
T8 construct: mutation is already in the entry
T8 peptide: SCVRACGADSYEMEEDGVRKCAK
Source text: as §4, §5

[11] = target: T9, recombinant human wild type EGFR protein (extracellular domain), denatured (human, UniProt P00533 25-645); assay: ELISA Exp 1, mAb supernatant
T9 construct: Same protein as m23 after 95 C for 5 min in PBS with 40 mM DTT (denatured, reduced); also called wt EGFR Denatured
Procedure: (§6) Pre- and post-immune sera titers of animals were assessed by ELISA on recombinant EGFRvIII protein. Unless otherwise stated, all incubations were performed at room temperature. […] Microplates were washed three times in PBS and blocked for 30 min with PBS containing 1% bovine serum albumin (BSA, Sigma Cat #A7030). Blocking buffer was removed and 25 μl of serial dilutions of sera samples were added. […] After a 1-h incubation, microplates were washed 4 times and 25 μl of p-nitrophenyl phosphate (pNPP) substrate (Sigma-Aldrich Canada Co., Oakville, ON) at 1 mg/ml in carbonate buffer at pH 9.6 was added and further incubated for 30 min.
(§7) Antigens at 1-2 mg/ml were incubated at 95° C. for 5 min in PBS containing DTT at a final concentration of 40 mM. They were then incubated on ice for 5 min and diluted at their final coating concentration for ELISA purpose.
(§8) ELISA was performed as described above (serum titer determination) using 25 μl of mAb supernatant (Exp 1) or purified mAb at 1 μg/ml (Exp 2).

[12] = target: T10, recombinant human EGFRvIII protein (extracellular domain), denatured (human, UniProt P00533 298-623); assay: ELISA Exp 1, mAb supernatant
T10 construct: Same protein as m21 after 95 C for 5 min in PBS with 40 mM DTT (denatured, reduced); also called EGFRvIII Denatured
Procedure: as §6, §7, §8

[13] = target: T11, recombinant human EGFRvIII protein (extracellular domain), native (human, UniProt P00533 298-623); assay: ELISA Exp 1, mAb supernatant
T11 construct: also called hEGFRvIII
Procedure: as §6, §7, §8

[14] = target: T12, recombinant human wild type EGFR protein (extracellular domain), native (human, UniProt P00533 25-645); assay: ELISA Exp 1, mAb supernatant
T12 construct: also called wt EGFR; EGFR WT
Procedure: as §6, §7, §8

[15] = target: T1, EGFRvIII, full length, overexpressed on …; assay: flow cytometry dose-response on U87MG-EGFRvIII cells, apparent Kd
[16] = target: T1, EGFRvIII, full length, overexpressed on …; assay: cell-based or functional assay
[17] = target: T1, EGFRvIII, full length, overexpressed on …; assay: cell-based or functional assay; remark: listed apart in the source
[18] = target: T13, EGFRvIII fragment amino acid residues 15 to 37, displayed on yeast (human); assay: yeast surface display, flow cytometry
T13 construct: also called aa 15-37; fragment 15-37
T13 peptide: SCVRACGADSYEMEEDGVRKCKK
Source text: as §4

[19] = target: T9, recombinant human wild type EGFR …; assay: ELISA Exp 2, purified mAb 1 ug/ml;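 note: ELISA of purified mAb binding to plate-coated antigen, native or heat/DTT-denatured, with pNPP substrate developed for 30 min and incubations at room temperature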
[20] = target: T10, recombinant human EGFRvIII protein …; assay: ELISA Exp 2, purified mAb 1 ug/ml;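 note: ELISA of purified mAb binding to plate-coated antigen, native or heat/DTT-denatured, with pNPP substrate developed for 30 min and incubations at room temperature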
[21] = target: T11, recombinant human EGFRvIII protein …; assay: ELISA Exp 2, purified mAb 1 ug/ml;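 note: ELISA of purified mAb binding to plate-coated antigen, native or heat/DTT-denatured, with pNPP substrate developed for 30 min and incubations at room temperature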
[22] = target: T12, recombinant human wild type EGFR …; assay: ELISA Exp 2, purified mAb 1 ug/ml;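 note: ELISA of purified mAb binding to plate-coated antigen, native or heat/DTT-denatured, with pNPP substrate developed for 30 min and incubations at room temperature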
[23] = target: T14, EGFRvIII amino acid residues 15 to 37 with Val17 to Ala mutation (human); assay: yeast display flow cytometry, Myc-normalized;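 note: Anti-EGFRvIII monoclonal antibodies tested by flow cytometry on yeast displaying alanine-substituted fragments, two-color indirect fluorescence with anti-Myc signal tracking fusion protein expression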
T14 construct: mutation is already in the entry
T14 peptide: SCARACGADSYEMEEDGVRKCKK
Source text: as §4, §5

[24] = target: T15, EGFRvIII amino acid residues 15 to 37 with Glu29 to Ala mutation (human); assay: yeast display flow cytometry, Myc-normalized;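 note: Anti-EGFRvIII monoclonal antibodies tested by flow cytometry on yeast displaying alanine-substituted fragments, two-color indirect fluorescence with anti-Myc signal tracking fusion protein expression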
T15 construct: mutation is already in the entry
T15 peptide: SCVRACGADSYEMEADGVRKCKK
Source text: as §4, §5

[25] = target: T16, EGFRvIII amino acid residues 15 to 37 with Ser24 to Ala mutation (human); assay: yeast display flow cytometry, Myc-normalized;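 note: Anti-EGFRvIII monoclonal antibodies tested by flow cytometry on yeast displaying alanine-substituted fragments, two-color indirect fluorescence with anti-Myc signal tracking fusion protein expression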
T16 construct: mutation is already in the entry
T16 peptide: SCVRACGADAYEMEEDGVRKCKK
Source text: as §4, §5

[26] = target: T17, EGFRvIII amino acid residues 15 to 37 with Lys37 to Ala mutation (human); assay: yeast display flow cytometry, Myc-normalized;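 note: Anti-EGFRvIII monoclonal antibodies tested by flow cytometry on yeast displaying alanine-substituted fragments, two-color indirect fluorescence with anti-Myc signal tracking fusion protein expression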
T17 construct: mutation is already in the entry
T17 peptide: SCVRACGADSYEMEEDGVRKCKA
Source text: as §4, §5

[27] = target: T18, EGFRvIII amino acid residues 15 to 37 with Glu28 to Ala mutation (human); assay: yeast display flow cytometry, Myc-normalized
T18 construct: mutation is already in the entry
T18 peptide: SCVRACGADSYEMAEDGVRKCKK
Source text: as §4, §5

[28] = target: T19, EGFRvIII amino acid residues 15 to 37 with Tyr25 to Ala mutation (human); assay: yeast display flow cytometry, Myc-normalized
T19 construct: mutation is already in the entry
T19 peptide: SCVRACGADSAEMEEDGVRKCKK
Source text: as §4, §5

[29] = target: T20, EGFRvIII amino acid residues 15 to 37 with Gly21 to Ala mutation (human); assay: yeast display flow cytometry, Myc-normalized
T20 construct: mutation is already in the entry
T20 peptide: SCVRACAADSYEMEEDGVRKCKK
Source text: as §4, §5

[30] = target: T21, EGFRvIII amino acid residues 15 to 37 with Ser15 to Ala mutation (human); assay: yeast display flow cytometry, Myc-normalized
T21 construct: mutation is already in the entry
T21 peptide: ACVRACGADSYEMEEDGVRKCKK
Source text: as §4, §5

[31] = target: T22, EGFRvIII amino acid residues 15 to 37 with Asp23 to Ala mutation (human); assay: yeast display flow cytometry, Myc-normalized
T22 construct: mutation is already in the entry
T22 peptide: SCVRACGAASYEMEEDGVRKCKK
Source text: as §4, §5

[32] = target: T23, EGFRvIII amino acid residues 15 to 37 with Cys20 to Ala mutation (human); assay: yeast display flow cytometry, Myc-normalized
T23 construct: mutation is already in the entry
T23 peptide: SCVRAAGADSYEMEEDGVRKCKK
Source text: as §4, §5

[33] = target: T24, EGFRvIII amino acid residues 15 to 37 with Met27 to Ala mutation (human); assay: yeast display flow cytometry, Myc-normalized
T24 construct: mutation is already in the entry
Source text: as §4, §5

[34] = target: T25, EGFRvIII amino acid residues 15 to 37 with Asp30 to Ala mutation (human); assay: yeast display flow cytometry, Myc-normalized
T25 construct: mutation is already in the entry
T25 peptide: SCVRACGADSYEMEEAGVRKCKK
Source text: as §4, §5

[35] = target: T26, EGFRvIII amino acid residues 15 to 37 with Arg18 to Ala mutation (human); assay: yeast display flow cytometry, Myc-normalized
T26 construct: mutation is already in the entry
T26 peptide: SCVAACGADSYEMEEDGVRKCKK
Source text: as §4, §5

T24 sequence (peptide, as listed by the source, change not shown): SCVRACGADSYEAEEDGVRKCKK

B1: hFc-4E11 (antibody, human IgG1, kappa, V domains shown)
VH: DVQLQESGPGLVKPSQSLSLTCTVTGYSITSDYAWNWIRQFPGNKLEWMGYIGYNGRTSYNPSLKSRISITRDTSKNQFFLQLNYVTTEDTATFYCARLGRGFAYWGQGTLVTVSA
VL: DILMTQSPSSMSVSLGDTVSITCHASQGINSNIGWLLQKPGKSFKGLIYHGTNLEDGVPSRFSGSGSGTDYSLTISSLESEDFADYYCVQYAQFPYTFGGGTKLEIKR
notes: Chimeric antibody, mouse variable regions on human IgG1 / human kappa, produced in CHO cells; also called chimeric 4E11
[1]
  Kd: 1.43 nM
[2]
  Bmax: 12100
[3]
  binding result: no binding
[4]
  Kd: 2.6 nM

B2: F265-9C9 (antibody, V domains shown)
VH: QVQLQQPGAELVKPGASVKLSCKASGYTFTSYWMHWVKQRPGQDLEWIGEIDPSDSYTNYNQKFKGKATLTVDKSSSTAYIQLSSLTSEDSALYYCARFDFAYWGQGTLVTVSA
VL: EIVLTQSPTLMAASPGEKVTITCSVSSSISSSNLHWYQQKSETSPKPWIYDTSNLASGVPIRFSGSGSGTSYSLTISSVEAEDAATYYCQQWSSYPLTFGSGTKLEIK
notes: Mouse hybridoma mAb
[5]
  binding result: no binding (tested: 0-15% of wild-type binding)
[6]
  binding result: no binding (tested: 0-15% of wild-type binding)
[7]
  binding result: no binding (tested: 0-15% of wild-type binding)
[8]
  binding result: no binding (tested: 0-15% of wild-type binding)
[9]
  binding result: no binding (tested: 0-15% of wild-type binding)
[10]
  binding result: no binding (tested: 0-15% of wild-type binding)
[11]
  ELISA absorbance 405 nm: 0.064 A405
[12]
  ELISA absorbance 405 nm: 1.72 A405
[13]
  ELISA absorbance 405 nm: 1.2 A405
[14]
  ELISA absorbance 405 nm: 0.21 A405
[15]
  Kd: > 200 nM
[16]
  % survival (DM1 secondary-conjugate ADC surrogate assay, vs mouse IgG): 82%
[17]
  % internalization (pHrodo surrogate assay, vs 225 mAb): 87%
[18]
  binding result: binds
[19]
  ELISA absorbance 405 nm: 0.003 A405
[20]
  ELISA absorbance 405 nm: 0.503 A405
[21]
  ELISA absorbance 405 nm: 1.29 A405
[22]
  ELISA absorbance 405 nm: 0.038 A405
[23]
  % of binding vs wild-type fragment 15-37: 87.5%
[24]
  % of binding vs wild-type fragment 15-37: 138%
[25]
  % of binding vs wild-type fragment 15-37: 211%
[26]
  % of binding vs wild-type fragment 15-37: 108%
[27]
  % of binding vs wild-type fragment 15-37: 87.1%
[28]
  % of binding vs wild-type fragment 15-37: 152%
[29]
  % of binding vs wild-type fragment 15-37: 160%
[30]
  % of binding vs wild-type fragment 15-37: 115%
[31]
  % of binding vs wild-type fragment 15-37: 63.2%
[32]
  % of binding vs wild-type fragment 15-37: 51.9%
[33]
  % of binding vs wild-type fragment 15-37: 159%
[34]
  % of binding vs wild-type fragment 15-37: 22.6%
[35]
  % of binding vs wild-type fragment 15-37: 205%
